T1: full-length rat CD11d on transfected JY cells (rat, UniProt Q9QYE7 20-1161)
T1 construct: whole, on cells
T1 sequence (looked up): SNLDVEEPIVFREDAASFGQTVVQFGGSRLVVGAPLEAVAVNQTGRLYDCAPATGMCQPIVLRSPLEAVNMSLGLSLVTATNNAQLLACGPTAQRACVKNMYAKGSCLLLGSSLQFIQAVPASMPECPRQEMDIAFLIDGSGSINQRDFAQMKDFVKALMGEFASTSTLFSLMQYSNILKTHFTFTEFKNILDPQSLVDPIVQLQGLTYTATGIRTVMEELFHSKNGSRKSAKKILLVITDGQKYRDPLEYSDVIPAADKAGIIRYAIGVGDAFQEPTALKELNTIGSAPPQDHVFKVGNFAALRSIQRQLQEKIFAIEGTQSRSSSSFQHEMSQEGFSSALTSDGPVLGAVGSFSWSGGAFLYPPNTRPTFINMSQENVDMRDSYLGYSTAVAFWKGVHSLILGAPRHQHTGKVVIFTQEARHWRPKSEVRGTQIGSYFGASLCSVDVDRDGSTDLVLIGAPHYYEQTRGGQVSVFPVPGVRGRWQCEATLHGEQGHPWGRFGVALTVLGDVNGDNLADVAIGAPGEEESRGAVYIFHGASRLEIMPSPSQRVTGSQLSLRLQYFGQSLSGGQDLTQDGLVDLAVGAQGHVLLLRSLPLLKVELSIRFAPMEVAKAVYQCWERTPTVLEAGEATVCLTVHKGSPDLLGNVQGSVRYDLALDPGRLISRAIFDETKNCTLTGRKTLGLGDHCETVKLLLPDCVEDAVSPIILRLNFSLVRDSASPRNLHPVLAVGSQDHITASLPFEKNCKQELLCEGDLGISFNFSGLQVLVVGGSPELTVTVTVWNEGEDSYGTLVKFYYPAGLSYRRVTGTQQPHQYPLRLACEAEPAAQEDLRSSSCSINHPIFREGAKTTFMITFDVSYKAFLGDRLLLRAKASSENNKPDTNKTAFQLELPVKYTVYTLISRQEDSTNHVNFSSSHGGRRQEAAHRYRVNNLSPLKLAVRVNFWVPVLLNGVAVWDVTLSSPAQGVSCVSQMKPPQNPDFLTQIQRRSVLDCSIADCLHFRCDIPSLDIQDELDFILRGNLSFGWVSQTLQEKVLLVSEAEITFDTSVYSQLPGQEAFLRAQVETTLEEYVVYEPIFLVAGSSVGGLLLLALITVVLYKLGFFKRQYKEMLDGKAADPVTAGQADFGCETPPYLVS


Tests used:
[1] = biological target: T2, human CD11d/CD18 expressed on JY cells (human, UniProt Q13349 18-1161; P05107 23-769); assay: FACS on JY cells expressing human CD11d/CD18; non-linear regression, one-site binding model
T2 construct: whole, on cells
Description: (§1) Binding affinity of the exemplified CD11d antibodies of Table 2 were determined, for both human and rat CD11d, by Fluorescence Activated Cell Sorting (FACS) analysis. JY cells expressing human CD11d/CD18 or JY cells transfected with full-length rat CD11d are suspended in FACS buffer with goat IgG (1 mg/ml). The cell solution is added to wells of 96-well round-bottom plates at a density of 4.0×10⁴ cells in 50 μL solution. Each of the exemplified CD11d antibodies of Table 2 (25 μL) or isotype control antibody (25 μL) is added to a respective well at 1:3 dilutions at final concentrations ranging between 4.6 ng/mL to 10 μg/mL. The plates are incubated on ice for 30 minutes, after which 200 μL of FACS buffer is added, plates are centrifuged at 2000 rpm for 3 minutes, and the liquid is discarded. Cells are re-suspended with 50 μL of a phycoerythrin-conjugated antibody (Jackson ImmunoResearch p/n. 709-116-149) at a 1:150 dilution and incubated on ice for 20 minutes. FACS buffer is added (200 μL) to each well and plates are spun at 2000 rpm for 3 minutes. The liquid is discarded, cells are washed with 200 μL FACS buffer, re-suspended in 120 μL of 1% paraformaldehyde in PBS, and transferred to 96-well flat-bottom plates.
(§2) Stained cells are analyzed by flow cytometry with the gate set on the isotype control antibody. The specific percent gated is calculated as [% gated (test antibody)−% gated (isotype control antibody)]. Kd determinations were made based on a non-linear regression, one-site binding model. Following procedures essentially as described above, binding affinities of the exemplified CD11d antibodies of Table 2 to human and rat CD11d were obtained.

[2] = biological target: T1, full-length rat CD11d on transfected JY …; assay: FACS on JY cells transfected with full-length rat CD11d; non-linear regression, one-site binding model
Description: as §1, §2

T2 sequence (Q13349 18-1161, chain 1 of 2): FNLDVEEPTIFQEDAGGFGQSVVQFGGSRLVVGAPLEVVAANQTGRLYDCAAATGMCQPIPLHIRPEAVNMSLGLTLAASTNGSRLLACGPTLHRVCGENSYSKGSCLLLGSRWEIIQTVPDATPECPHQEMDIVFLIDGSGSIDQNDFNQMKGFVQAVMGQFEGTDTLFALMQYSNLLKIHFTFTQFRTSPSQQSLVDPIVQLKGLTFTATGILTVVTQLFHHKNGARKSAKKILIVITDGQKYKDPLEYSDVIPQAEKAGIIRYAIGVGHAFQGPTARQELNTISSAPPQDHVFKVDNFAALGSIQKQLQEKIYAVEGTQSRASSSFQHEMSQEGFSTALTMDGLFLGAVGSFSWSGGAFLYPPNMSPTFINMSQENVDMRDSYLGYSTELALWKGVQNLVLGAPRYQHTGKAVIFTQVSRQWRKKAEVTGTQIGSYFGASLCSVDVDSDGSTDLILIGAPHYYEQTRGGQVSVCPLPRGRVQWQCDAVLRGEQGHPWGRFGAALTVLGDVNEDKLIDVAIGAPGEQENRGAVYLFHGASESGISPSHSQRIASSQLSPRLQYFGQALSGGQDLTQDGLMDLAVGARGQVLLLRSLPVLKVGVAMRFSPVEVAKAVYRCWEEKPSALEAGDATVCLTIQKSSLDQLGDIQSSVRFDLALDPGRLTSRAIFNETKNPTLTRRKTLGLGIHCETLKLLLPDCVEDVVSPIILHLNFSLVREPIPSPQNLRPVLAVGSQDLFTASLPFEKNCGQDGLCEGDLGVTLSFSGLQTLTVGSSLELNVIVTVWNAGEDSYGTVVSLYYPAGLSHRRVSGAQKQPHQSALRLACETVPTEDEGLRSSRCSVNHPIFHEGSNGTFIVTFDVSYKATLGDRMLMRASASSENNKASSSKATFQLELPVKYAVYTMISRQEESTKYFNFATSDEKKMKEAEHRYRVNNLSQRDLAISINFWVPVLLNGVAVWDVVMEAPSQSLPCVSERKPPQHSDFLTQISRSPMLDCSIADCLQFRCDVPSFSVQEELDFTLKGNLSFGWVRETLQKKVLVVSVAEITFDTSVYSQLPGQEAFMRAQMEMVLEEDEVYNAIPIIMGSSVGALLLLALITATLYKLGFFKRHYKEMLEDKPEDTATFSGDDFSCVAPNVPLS
T2 sequence (P05107 23-769, chain 2 of 2): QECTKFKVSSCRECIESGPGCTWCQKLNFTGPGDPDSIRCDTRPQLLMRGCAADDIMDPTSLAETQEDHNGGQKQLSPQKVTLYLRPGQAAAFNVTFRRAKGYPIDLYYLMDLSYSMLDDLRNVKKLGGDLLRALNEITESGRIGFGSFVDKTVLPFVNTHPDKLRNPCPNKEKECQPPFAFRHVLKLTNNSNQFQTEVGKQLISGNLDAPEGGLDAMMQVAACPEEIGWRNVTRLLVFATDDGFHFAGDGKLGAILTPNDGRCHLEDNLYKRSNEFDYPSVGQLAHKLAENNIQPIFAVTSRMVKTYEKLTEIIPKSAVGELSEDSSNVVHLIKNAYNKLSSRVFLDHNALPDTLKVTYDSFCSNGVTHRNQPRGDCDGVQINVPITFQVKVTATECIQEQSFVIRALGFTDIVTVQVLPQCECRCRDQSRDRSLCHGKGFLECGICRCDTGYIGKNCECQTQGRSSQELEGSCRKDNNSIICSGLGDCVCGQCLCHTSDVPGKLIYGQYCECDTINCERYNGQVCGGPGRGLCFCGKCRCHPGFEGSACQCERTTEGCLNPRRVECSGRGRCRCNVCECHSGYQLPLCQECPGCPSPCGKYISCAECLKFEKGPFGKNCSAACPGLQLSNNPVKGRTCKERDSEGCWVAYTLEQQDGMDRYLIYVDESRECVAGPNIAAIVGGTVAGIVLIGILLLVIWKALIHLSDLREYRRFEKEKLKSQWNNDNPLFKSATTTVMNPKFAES

Binder	Kd [1]	Kd [2]
Exemplified Antibody 1 (antibody, human IgG4 S228P, kappa, F234A L235A, V domains shown, Humanized antibody, full LC (kappa) and HC (IgG4)) VH: QVQLVQSGAEVKKPGASVKVSCKASGYTFTDYNMHWVRQAPGQGLEWMGYIYPYNGDTGYNQNFKSRVTMTRDTSTSTVYMELSSLRSEDTAVYYCARGLIYYGYLNVAMDSWGQGTLVTVSS VL: DIQMTQSPSSLSASVGDRVTITCRASQSIGTRIHWYQQKPGKAPKLLIYFASESISGVPSRFSGSGSGTDFTLTISSLQPEDFATYYCQQSKIWPTTFGGGTKLEIKR	0.436 nM	1.45 nM
Exemplified Antibody 5 (antibody, human IgG4 S228P, kappa, F234A L235A, V domains shown, Humanized antibody, full LC (kappa) and HC (IgG4)) VH: QVQLVQSGAEVKKPGASVKVSCKASGYTFTDYNMHWVRQAPGQGLEWMGYIYPYSGDTGYNQNFKSRVTMTRDTSTSTVYMELSSLRSEDTAVYYCARGLIYYGYLNVAMDSWGQGTLVTVSS VL: DIQMTQSPSSLSASVGDRVTITCRASESIGTRIHWYQQKPGKAPKLLIYFASESISGVPSRFSGSGSGTDFTLTISSLQPEDFATYYCQQSKIWPTTFGGGTKLEIKR	0.344 nM	1.18 nM
Exemplified Antibody 4 (antibody, human IgG4 S228P, kappa, F234A L235A, V domains shown, Humanized antibody, full LC (kappa) and HC (IgG4)) VH: QVQLVQSGAEVKKPGASVKVSCKASGYTFYDYNMHWVRQAPGQGLEWMGYIYPYNGDTGYNQNFKSRVTMTRDTSTSTVYMELSSLRSEDTAVYYCARGLIHYGYLNVAMDSWGQGTLVTVSS VL: DIQMTQSPSSLSASVGDRVTITCRASRSIGTRIHWYQQKPGKAPKLLIYFASGSISGVPSRFSGSGSGTDFTLTISSLQPEDFATYYCQQSKIFPTTFGGGTKLEIKR	0.333 nM	0.247 nM

Now those with a lower Kd [1], led by results:

Kd [1]	Kd [2]	Binder
0.303 nM	0.133 nM	Exemplified Antibody 2 (antibody, human IgG4 S228P, kappa, F234A L235A, V domains shown, Humanized antibody, full LC (kappa) and HC (IgG4)) VH: QVQLVQSGAEVKKPGASVKVSCKASGYTFGDYNMHWVRQAPGQGLEWMGYIYPYNGDTGYNQNFKSRVTMTRDTSTSTVYMELSSLRSEDTAVYYCARGLVHYGYLNVAMDSWGQGTLVTVSS VL: DIQMTQSPSSLSASVGDRVTITCRASRSIGTRIHWYQQKPGKAPKLLIYFASGSISGVPSRFSGSGSGTDFTLTISSLQPEDFATYYCQQSKIFPTTFGGGTKLEIKR
0.304 nM	0.677 nM	Exemplified Antibody 3 (antibody, human IgG4 S228P, kappa, F234A L235A, V domains shown, Humanized antibody, full LC (kappa) and HC (IgG4)) VH: QVQLVQSGAEVKKPGASVKVSCKASGYTFTDYNMHWVRQAPGQGLEWMGYIYPYSGDTGYNQNFKSRVTMTRDTSTSTVYMELSSLRSEDTAVYYCARGLIYYGYLNVAMDSWGQGTLVTVSS VL: DIQMTQSPSSLSASVGDRVTITCRASQSIGTRIHWYQQKPGKAPKLLIYFASESISGVPSRFSGSGSGTDFTLTISSLQPEDFATYYCQQSKIGPTTFGGGTKLEIKR
